The values below come from patent US20170166631A1 (published 2017).

Assay in all cases: ELISA
(In general: ELISA stands for enzyme-linked immunosorbent assay.)

Assay [1] deals with T1, HD49 (huntingtin exon 1 protein with 49 polyQ repeats after cleavage of the GST tag; aggregation reaction) (human, UniProt P42858 1-88).
T1 chain: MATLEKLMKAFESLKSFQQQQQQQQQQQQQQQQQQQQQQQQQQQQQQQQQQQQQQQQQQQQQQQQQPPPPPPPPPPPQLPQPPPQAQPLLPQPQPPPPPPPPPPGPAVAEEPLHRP

The target in assay [2] is T2, GST-HttExon1Q21 (recombinant huntingtin exon 1 protein with 21 polyQ repeats fused to an N-terminal GST tag) (;human, UniProt P08515 1-218 = GST; P42858 1-88).
Target sequence in this assay (P08515 1-218, tags or fused parts left off): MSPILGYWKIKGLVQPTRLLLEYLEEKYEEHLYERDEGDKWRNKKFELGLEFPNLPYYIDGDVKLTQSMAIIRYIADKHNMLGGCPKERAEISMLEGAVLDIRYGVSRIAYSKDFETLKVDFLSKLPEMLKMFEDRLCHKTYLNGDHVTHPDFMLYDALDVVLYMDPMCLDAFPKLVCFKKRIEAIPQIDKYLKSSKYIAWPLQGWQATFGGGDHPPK
Assay [3] addresses T3, HD21 (huntingtin exon 1 protein with 21 polyQ repeats after cleavage of the GST tag; aggregation reaction) (human, UniProt P42858 1-88).
T3 chain: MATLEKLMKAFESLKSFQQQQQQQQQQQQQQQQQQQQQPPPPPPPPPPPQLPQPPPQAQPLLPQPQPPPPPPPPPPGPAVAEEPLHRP

For assay [4], the target named is T1, HD49 (huntingtin exon 1 protein with 49 …).
The target in assay [5] is T2, GST-HttExon1Q21 (recombinant huntingtin …). The source holds these as a separate data set.
Target sequence in this assay (P08515 1-218, tags or fused parts left off): as the sequence (P08515 1-218, tags or fused parts left off) above
The target in assay [6] is T1, HD49 (huntingtin exon 1 protein with 49 …).
Assay [7] addresses T2, GST-HttExon1Q21 (recombinant huntingtin …). This is another data set of the same source.
The target of assay [8] is T3, HD21 (huntingtin exon 1 protein with 21 …).

Like-named read-outs stand apart in the source and are kept apart here.

B1: NI-302.18A1 (antibody, V domains shown)
VH: QLQLQESGPGLVKPSEALSLTCTVSGGSITTDYYYWGWIRQSPGKGLEWVGTIYFGGATYYNPSLRNRVSISVDTSNTRLSLRLISLSAADTAVYYCARVGYLDRSGLLVGQGTLVTVSS
VL: EIVLTQSPLSVPVTPGEPASISCRSSQSLLHNNGYNYLDWYLKKPGQSPQLLIYLGSTRASGVPDRFSASGSGTDFTLEISRVEAEDVGVYYCMQALQTPPTFGRGTKVEIK
One may read the EC50 as the concentration needed to bring the measured effect to its halfway point. In the case of B1, the values for the EC50 in assay [1], in assay [2] and in assay [3] were 0.03 nM, 0.04 nM and 0.02 nM, respectively.

B2: NI-302.4A6 (antibody, V domains shown)
VH: EVQLVESGGGLVQPGGSLRLSCAASGFTFSAYAMSWVRQAPGKGLEWVSTISGSGGSTYYADSVKGRFSISRDNSKNTLYLQMNSLRAEDTAVYFCAKVTTELYGANSYYYYMDVWGKGTTVTVSS
VL: EIVLTQSPGTLSLSPGERATLSCRASQSVVSRYLAWYQQKPGQAPRLLIYGASSRATGIPDRFSGSGSGTDFTLTISRLEPEDFAMYYCQLYGNSQTFGQGTKVEIK
For B2, the concentration for a half-maximal effect (EC50) in assay [4], in assay [5], in assay [6] and in assay [7] was 3 nM in each case.

B3: NI-302.8F1 (antibody, V domains shown)
VH: EVQLVESGGGLVKPGGSLTISCAASGFTFSNAWMNWVRQAPGKGLEWVGHIRTQAEGGTSDYAAPVKGRFTISRDDSKNTLYLQMNSLKTEDTAVYYCIPPPYYYYYGLDVWGQGTTVTVSS
VL: QSALTQPASVSGSPGQSITISCTGASSDVGTYDLVSWYQQHPGKAPKLIIYEVNKRPSGVSYRFSASKSANTASLTISGLQAEDEAEYYCCSYAGYSTVFGGGTKLTVL
For B3, the EC50 in assay [1] came to 1.9 nM; in assay [2], 0.8 nM; in assay [3], 1.6 nM.

B4: NI-302.15F9 (antibody, V domains shown)
VH: EVQLVESGGGLVTPGGSLRLSCEASGFLFKNSSMNWVRQTPGKGLEWVSSIDTSATNYKYYADSVKGRFTISRDDATNSLYLQMNSLRADDTATYYCARGYYTPRDFDYWGQGTLVTVSS
VL: DVVMTQSPQTLSVSLGQAASISCRSSQSLLYRDNNTYLNWFHQRPGQSPRRLIYRASDRDSGVPDRFSGGGSGTDFTLKISGVEAEDVGTYYCMQGTHWPRTFGQGTKVEIK
B4: the figures for the EC50 in assay [4], in assay [5] and in assay [8] were 6 nM, 11 nM and 35 nM, respectively.

B5: NI-302.52C9 (antibody, V domains shown)
VH: EVQLVQSGGGLVQPGGSLRLSCAGSGFTVSDTYMSWVRQAPGKGLEWVSGIHAGGETYYADSVKGRFTISRDNSKNTLYLQMNRLTPEDTAVFYCARHYYGNDDDTDYWGQGTLVTVSS
VL: DVVMTQSPLSLPVTPGEPASISCRSSQSLLHSNGYNYLDWYVQKPGQSPQLLIYLGSTRASGVPDRFSGSGSGTDFTLKISRVEAEDVGVYYCLQAQQIPWTFGQGTKVEIK
For the molecule B5, the EC50 in assay [1] stood at 30 nM; in assay [2] it was 10.2 nM; in assay [3] it was 28 nM.

B6: NI-302.12H2 (antibody, V domains shown)
VH: EVQLVQSGGGLVQPGGSLRLSCEASGFTFSNYAMGWVRQAPGKGLEWVSVISGTGGSTYYADSVKGRFTISRDNSMNTLYLQMNSPRADDTAVYYCAKDLRKISGPLYYYGMDVWGQGTTVTVSS
VL: EIVLTQSPGTLSLSPGERATLSCRASQSVSSGYLAWYQQKPGQAPRLLIYGASTRATGIPDRFSGSGSGTDFTLTISRLEPEDFAVYYCQHYGASSYTFGQGTKLEIK
As for B6, the EC50 in assay [4], in assay [5], in assay [6] and in assay [7] was 0.04 nM throughout.

B7: NI-302.8M1 (antibody, V domains shown)
VH: EVQLVQSGAEVKKPGASVKVSCKASGYTFTIYYMHWVRQAPGQGLEWMGGISPSGAHTMYAQNFQGRVTVTRDTSTSTVYMELSSLRSEDTAVYYCARGSTVTNYRPFDYWGQGTLVTVSS
VL: DIQMTQSPSSLSASVGDRVTITCRASQDISNYLAWYQQKPGKVPKLLIFAASTLQSGVPSRFGGSGSGTDFTLTISSLQPEDVATYYCQNYNSGPPPFGPGTKVDIK
B7: the 50% effective concentration (EC50) in assay [4] amounted to 0.003 nM; in assay [5] it was 0.002 nM; in assay [6] it was 0.003 nM; in assay [7] it was 0.002 nM.
